The supplement of paper PMC10567573

B1: ZNF511 (parent)
chain: EPLPVERDPAAGAAPFRFVARPVR

Variants of: B1
Experiment: protein stability index of a GFP-peptide fusion (GPS, HEK-293T) (PSI 1-6); higher = more stable
Details: c terminus: a fixed tail appended
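Further: lentivirally expressed fusions sorted by FACS into six bins by GFP to DsRed ratio, PSI derived from sequencing read proportions per bin multiplied by bin number.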

Protein stability index: each site, then its substitutions
P2: H 2.12, N 1.99, T 2.1, S 2.84, D 2.55, E 2.23, W 1.8, L 2.37, G 2.75, Y 2.45, C 2.08, R 2.36, V 2.03, F 1.72, A 2.66, M 2.3, I 2.12, Q 1.94, K 2.06
E1: P 2.23, Y 1.77, M 2.38, H 2.2, Q 2.9, I 2.12, L 2.69, K 2.06, S 2.13, F 2.85, A 2.57, W 2.35, V 2.27, C 2.64, R 2.39, D 2.73, G 1.85, T 2.44, N 2
P9: Y 2.12, M 2.73, A 1.72, E 2.2, T 2.74, Q 1.98, K 1.46, R 1.54, C 2.34, N 2.24, G 1.96, W 1.33, S 2.08, H 2.59, F 2.17, I 2.34, D 2.38, V 1.92, L 2.42
G12: Q 2.55, C 2.79, E 2.09, Y 1.96, K 2.52, N 2.27, T 1.64, V 1.92, H 2.64, F 2.01, I 1.46, S 2.02, L 2.4, D 2.65, M 2.38, P 1.76, R 2.33, A 2.06, W 1.67
V5: Y 2.1, K 1.77, A 2.18, P 2, R 2.85, L 2.23, H 1.96, D 2.54, W 2.64, M 2.71, T 1.83, I 2.46, S 2.56, N 2.82, C 2.39, Q 2.37, F 2.12, E 2.17
P4: L 2.27, A 2.88, C 1.91, R 3.23, T 2.8, Y 1.64, E 2.43, D 2.9, V 2.49, Q 1.99, G 2.63, W 1.58, S 3.43, H 2.14, I 2.9, N 2.29, M 2.66, F 2.52, K 2.09
P15: F 3.23, D 4.21, E 3.04, C 3.77, A 3.76
D8: F 2.57, L 2.22, W 1.91, R 2.21, H 2.25, G 1.91, C 2.37, P 2.4, M 2.46, N 3.17, S 2.36, V 2.4, Y 2.63, Q 2.12, E 2.13, I 2.91, A 2.26, T 2.99
R7: Y 1.75, Q 2.65, C 2.06, S 2.34, A 2.25, H 2.57, V 2.42, N 2.32, D 2.9, G 2.1, F 2.1, W 1.05, K 2.12, M 2.09, T 3, I 2.91, L 2.82, P 2.22, E 3.03
A13: N 2.58, F 1.94, T 2.5, I 1.66, C 2, S 3.04, E 2.62, P 2.37, R 2.34, W 1.77, M 3.42, Q 2.6
